Assay results taken from patent publication US20250295737A1 (AstraZeneca / MedImmune, published 2025).
Like-named read-outs stand apart in the source and are kept apart here.

T1: human RXFP1 (human, UniProt Q9HBX9 1-757)
T1 sequence (looked up): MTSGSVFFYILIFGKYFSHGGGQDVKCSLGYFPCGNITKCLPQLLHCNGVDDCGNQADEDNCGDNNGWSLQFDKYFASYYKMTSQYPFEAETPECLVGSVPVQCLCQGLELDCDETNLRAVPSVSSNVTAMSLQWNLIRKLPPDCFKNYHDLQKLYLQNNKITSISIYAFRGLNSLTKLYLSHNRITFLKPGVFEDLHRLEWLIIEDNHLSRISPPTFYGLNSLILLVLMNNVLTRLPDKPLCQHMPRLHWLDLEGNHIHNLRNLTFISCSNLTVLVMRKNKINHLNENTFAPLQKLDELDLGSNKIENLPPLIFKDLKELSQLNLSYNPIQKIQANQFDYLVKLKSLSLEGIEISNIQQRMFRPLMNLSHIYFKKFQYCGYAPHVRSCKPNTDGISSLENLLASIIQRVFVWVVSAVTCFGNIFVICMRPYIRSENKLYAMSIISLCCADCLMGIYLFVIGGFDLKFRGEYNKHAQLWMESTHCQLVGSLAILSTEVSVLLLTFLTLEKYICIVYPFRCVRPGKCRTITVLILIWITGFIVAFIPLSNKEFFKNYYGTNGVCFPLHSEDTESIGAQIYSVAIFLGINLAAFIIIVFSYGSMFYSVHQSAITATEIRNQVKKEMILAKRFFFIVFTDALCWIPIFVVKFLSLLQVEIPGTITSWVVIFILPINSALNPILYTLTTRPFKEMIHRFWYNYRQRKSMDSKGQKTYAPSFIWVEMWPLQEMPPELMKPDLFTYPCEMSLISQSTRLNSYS

T2: mouse RXFP1 (mouse, UniProt Q6R6I7 1-758)
T2 sequence (looked up): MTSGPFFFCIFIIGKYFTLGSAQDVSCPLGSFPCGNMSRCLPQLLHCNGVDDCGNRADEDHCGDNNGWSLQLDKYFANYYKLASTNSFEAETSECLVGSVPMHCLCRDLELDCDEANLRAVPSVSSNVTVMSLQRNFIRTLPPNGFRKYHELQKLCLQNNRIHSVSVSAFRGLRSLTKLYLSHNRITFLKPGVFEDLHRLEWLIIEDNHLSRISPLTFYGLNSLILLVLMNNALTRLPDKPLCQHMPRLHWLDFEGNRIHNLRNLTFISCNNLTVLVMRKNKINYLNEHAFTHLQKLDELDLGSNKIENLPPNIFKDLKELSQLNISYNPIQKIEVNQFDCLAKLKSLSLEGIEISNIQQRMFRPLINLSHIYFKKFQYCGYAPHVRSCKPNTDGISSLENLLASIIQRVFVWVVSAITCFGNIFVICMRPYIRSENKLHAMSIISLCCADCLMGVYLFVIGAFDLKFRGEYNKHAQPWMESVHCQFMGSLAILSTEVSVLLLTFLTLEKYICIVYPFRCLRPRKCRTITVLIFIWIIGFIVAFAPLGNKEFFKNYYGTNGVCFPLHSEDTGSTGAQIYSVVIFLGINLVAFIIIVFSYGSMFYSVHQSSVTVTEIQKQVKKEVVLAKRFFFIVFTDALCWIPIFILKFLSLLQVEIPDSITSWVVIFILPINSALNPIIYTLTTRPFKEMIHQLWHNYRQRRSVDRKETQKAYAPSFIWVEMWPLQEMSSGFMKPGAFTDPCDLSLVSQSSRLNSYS


Experiments:
Experiment in all cases: cell-based or functional assay
human RXFP1 [1] = target: T1, human RXFP1
mouse RXFP1 [2] = target: T2, mouse RXFP1
human RXFP2 [3] = target: T3, human RXFP2 (human, UniProt Q8WXD0 1-754)
T3 sequence (Q8WXD0 whole entry): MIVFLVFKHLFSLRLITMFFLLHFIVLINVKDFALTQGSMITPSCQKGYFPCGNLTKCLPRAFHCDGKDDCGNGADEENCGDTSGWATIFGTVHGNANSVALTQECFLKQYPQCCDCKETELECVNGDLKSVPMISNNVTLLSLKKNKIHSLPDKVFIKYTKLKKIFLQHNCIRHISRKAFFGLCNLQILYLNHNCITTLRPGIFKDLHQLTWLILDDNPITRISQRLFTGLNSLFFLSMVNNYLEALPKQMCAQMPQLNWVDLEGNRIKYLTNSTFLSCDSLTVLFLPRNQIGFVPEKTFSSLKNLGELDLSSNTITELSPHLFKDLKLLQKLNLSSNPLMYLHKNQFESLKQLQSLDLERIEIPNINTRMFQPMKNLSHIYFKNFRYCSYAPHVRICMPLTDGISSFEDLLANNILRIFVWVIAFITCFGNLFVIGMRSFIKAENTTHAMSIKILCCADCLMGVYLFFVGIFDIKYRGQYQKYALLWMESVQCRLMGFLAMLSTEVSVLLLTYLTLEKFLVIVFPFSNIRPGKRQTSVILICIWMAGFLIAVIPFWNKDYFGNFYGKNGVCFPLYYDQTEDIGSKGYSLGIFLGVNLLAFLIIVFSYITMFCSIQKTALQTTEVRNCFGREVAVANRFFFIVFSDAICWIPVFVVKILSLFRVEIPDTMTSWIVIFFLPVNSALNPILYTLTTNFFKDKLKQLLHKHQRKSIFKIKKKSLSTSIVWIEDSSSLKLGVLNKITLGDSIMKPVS

human RXFP1 [4] = target: T1, human RXFP1; remark: listed apart in the source
mouse RXFP1 [5] = target: T2, mouse RXFP1; remark: listed apart in the source
human RXFP2 [6] = target: T3, human RXFP2; remark: listed apart in the source

Row | EC50 hRXFP1 (M), cAMP HTRF assay (human RXFP1 [1]) [M] | EC50 mRXFP1 (M), cAMP HTRF assay (mouse RXFP1 [2]) [M] | EC50 hRXFP2 (M), cAMP HTRF assay (human RXFP2 [3]) [M] | EC50 hRXFP1 (M), cAMP HTRF assay (human RXFP1 [4]) [M] | EC50 mRXFP1 (M), cAMP HTRF assay (mouse RXFP1 [5]) [M] | EC50 hRXFP2 (M), cAMP HTRF assay (human RXFP2 [6]) [M] | Binder
1 | 1.93e-09 | 1.24e-09 | > 6.06e-08 | – | – | – | RELAX0111 (Fc fusion) chain 1: DKTHTCPPCPAPEFEGGPSVFLFPPKPKDTLMISRTPEVTCVVVDVSHEDPEVKFNWYVDGVEVHNAKTKPREEQYNSTYRVVSVLTVLHQDWLNGKEYKCKVSNKALPASIEKTISKAKGQPREPQVYTLPPCREEMTKNQVSLWCLVKGFYPSDIAVEWESNGQPENNYKTTPPVLDSDGSFFLYSKLTVDKSRWQQGNVFSCSVMHEALHNHYTQKSLSLSPGGGGGGSQLYSALANKCCHVGCTKRSLARFC chain 2: DKTHTCPPCPAPEFEGGPSVFLFPPKPKDTLMISRTPEVTCVVVDVSHEDPEVKFNWYVDGVEVHNAKTKPREEQYNSTYRVVSVLTVLHQDWLNGKEYKCKVSNKALPASIEKTISKAKGQPREPQVYTLPPCREEMTKNQVSLWCLVKGFYPSDIAVEWESNGQPENNYKTTPPVLDSDGSFFLYSKLTVDKSRWQQGNVFSCSVMHEALHNHYTQKSLSLSPGAAPAPAPAPAPAPAGSSWMEEVIKLCGRELVRAQIAICGMSTWS
2 | – | – | – | 6.54e-11 | 4.25e-11 | 1.08e-07 | RELAX0039 (Fc fusion) chain 1: DKTHTACPPCPAPEFEGGPSVFLFPPKPKDTLMISRTPEVTCVVVDVSHEDPEVKFNWYVDGVEVHNAKTKPREEQYNSTYRVVSVLTVLHQDWLNGKEYKCKVSNKALPASIEKTISKAKGQPREPQVYTLPPCREEMTKNQVSLWCLVKGFYPSDIAVEWESNGQPENNYKTTPPVLDSDGSFFLYSKLTVDKSRWQQGNVFSCSVMHEALHNHYTQKSLSLSPGGGGGSGGGGSGGGGSGGGGGSQLYSALANMCCHVGCTKRSLARFC chain 2: DKTHTCPPCPAPEFEGGPSVFLFPPKPKDTLMISRTPEVTCVVVDVSHEDPEVKFNWYVDGVEVHNAKTKPREEQYNSTYRVVSVLTVLHQDWLNGKEYKCKVSNKALPASIEKTISKAKGQPREPQVCTLPPSREEMTKNQVSLSCAVKGFYPSDIAVEWESNGQPENNYKTTPPVLDSDGSFFLVSKLTVDKSRWQQGNVFSCSVMHEALHNHYTQKSLSLSPGGGGGSGGGGSGGGGSGGGGGSSWMEEVIKLCGRELVRAQIAICGMSTWS
3 | – | – | – | 6.22e-11 | 3.17e-11 | 1.18e-07 | RELAX0041 (Fc fusion) chain 1: DKTHTACPPCPAPEFEGGPSVFLFPPKPKDTLMISRTPEVTCVVVDVSHEDPEVKFNWYVDGVEVHNAKTKPREEQYNSTYRVVSVLTVLHQDWLNGKEYKCKVSNKALPASIEKTISKAKGQPREPQVYTLPPCREEMTKNQVSLWCLVKGFYPSDIAVEWESNGQPENNYKTTPPVLDSDGSFFLYSKLTVDKSRWQQGNVFSCSVMHEALHNHYTQKSLSLSPGGGGGSGGGGSGGGGSGGGGGSQLYSALANHCCHVGCTKRSLARFC chain 2: DKTHTCPPCPAPEFEGGPSVFLFPPKPKDTLMISRTPEVTCVVVDVSHEDPEVKFNWYVDGVEVHNAKTKPREEQYNSTYRVVSVLTVLHQDWLNGKEYKCKVSNKALPASIEKTISKAKGQPREPQVCTLPPSREEMTKNQVSLSCAVKGFYPSDIAVEWESNGQPENNYKTTPPVLDSDGSFFLVSKLTVDKSRWQQGNVFSCSVMHEALHNHYTQKSLSLSPGGGGGSGGGGSGGGGSGGGGGSSWMEEVIKLCGRELVRAQIAICGMSTWS
4 | – | – | – | 9.67e-11 | 5.69e-11 | 1.05e-07 | RELAX0052 (Fc fusion) chain 1: DKTHTACPPCPAPEFEGGPSVFLFPPKPKDTLMISRTPEVTCVVVDVSHEDPEVKFNWYVDGVEVHNAKTKPREEQYNSTYRVVSVLTVLHQDWLNGKEYKCKVSNKALPASIEKTISKAKGQPREPQVYTLPPCREEMTKNQVSLWCLVKGFYPSDIAVEWESNGQPENNYKTTPPVLDSDGSFFLYSKLTVDKSRWQQGNVFSCSVMHEALHNHYTQKSLSLSPGGGGGSGGGGSGGGGSGGGGGSQLYSALANKCCHVGCTKESLARFC chain 2: DKTHTCPPCPAPEFEGGPSVFLFPPKPKDTLMISRTPEVTCVVVDVSHEDPEVKFNWYVDGVEVHNAKTKPREEQYNSTYRVVSVLTVLHQDWLNGKEYKCKVSNKALPASIEKTISKAKGQPREPQVCTLPPSREEMTKNQVSLSCAVKGFYPSDIAVEWESNGQPENNYKTTPPVLDSDGSFFLVSKLTVDKSRWQQGNVFSCSVMHEALHNHYTQKSLSLSPGGGGGSGGGGSGGGGSGGGGGSSWMEEVIKLCGRELVRAQIAICGMSTWS
5 | – | – | – | 7.15e-11 | 4.36e-11 | > 1.79e-07 | RELAX0053 (Fc fusion) chain 1: DKTHTACPPCPAPEFEGGPSVFLFPPKPKDTLMISRTPEVTCVVVDVSHEDPEVKFNWYVDGVEVHNAKTKPREEQYNSTYRVVSVLTVLHQDWLNGKEYKCKVSNKALPASIEKTISKAKGQPREPQVYTLPPCREEMTKNQVSLWCLVKGFYPSDIAVEWESNGQPENNYKTTPPVLDSDGSFFLYSKLTVDKSRWQQGNVFSCSVMHEALHNHYTQKSLSLSPGGGGGSGGGGSGGGGSGGGGGSQLYSALANKCCHVGCTKHSLARFC chain 2: DKTHTCPPCPAPEFEGGPSVFLFPPKPKDTLMISRTPEVTCVVVDVSHEDPEVKFNWYVDGVEVHNAKTKPREEQYNSTYRVVSVLTVLHQDWLNGKEYKCKVSNKALPASIEKTISKAKGQPREPQVCTLPPSREEMTKNQVSLSCAVKGFYPSDIAVEWESNGQPENNYKTTPPVLDSDGSFFLVSKLTVDKSRWQQGNVFSCSVMHEALHNHYTQKSLSLSPGGGGGSGGGGSGGGGSGGGGGSSWMEEVIKLCGRELVRAQIAICGMSTWS
6 | – | – | – | 7.98e-11 | 5.58e-11 | > 1.58e-07 | RELAX0043 (Fc fusion) chain 1: DKTHTACPPCPAPEFEGGPSVFLFPPKPKDTLMISRTPEVTCVVVDVSHEDPEVKFNWYVDGVEVHNAKTKPREEQYNSTYRVVSVLTVLHQDWLNGKEYKCKVSNKALPASIEKTISKAKGQPREPQVYTLPPCREEMTKNQVSLWCLVKGFYPSDIAVEWESNGQPENNYKTTPPVLDSDGSFFLYSKLTVDKSRWQQGNVFSCSVMHEALHNHYTQKSLSLSPGGGGGSGGGGSGGGGSGGGGGSQLYSALANECCHVGCTKRSLARFC chain 2: DKTHTCPPCPAPEFEGGPSVFLFPPKPKDTLMISRTPEVTCVVVDVSHEDPEVKFNWYVDGVEVHNAKTKPREEQYNSTYRVVSVLTVLHQDWLNGKEYKCKVSNKALPASIEKTISKAKGQPREPQVCTLPPSREEMTKNQVSLSCAVKGFYPSDIAVEWESNGQPENNYKTTPPVLDSDGSFFLVSKLTVDKSRWQQGNVFSCSVMHEALHNHYTQKSLSLSPGGGGGSGGGGSGGGGSGGGGGSSWMEEVIKLCGRELVRAQIAICGMSTWS
7 | – | – | – | 5.92e-11 | 2.92e-11 | > 1.27e-07 | RELAX0040 (Fc fusion) chain 1: DKTHTACPPCPAPEFEGGPSVFLFPPKPKDTLMISRTPEVTCVVVDVSHEDPEVKFNWYVDGVEVHNAKTKPREEQYNSTYRVVSVLTVLHQDWLNGKEYKCKVSNKALPASIEKTISKAKGQPREPQVYTLPPCREEMTKNQVSLWCLVKGFYPSDIAVEWESNGQPENNYKTTPPVLDSDGSFFLYSKLTVDKSRWQQGNVFSCSVMHEALHNHYTQKSLSLSPGGGGGSGGGGSGGGGSGGGGGSQLYSALANLCCHVGCTKRSLARFC chain 2: DKTHTCPPCPAPEFEGGPSVFLFPPKPKDTLMISRTPEVTCVVVDVSHEDPEVKFNWYVDGVEVHNAKTKPREEQYNSTYRVVSVLTVLHQDWLNGKEYKCKVSNKALPASIEKTISKAKGQPREPQVCTLPPSREEMTKNQVSLSCAVKGFYPSDIAVEWESNGQPENNYKTTPPVLDSDGSFFLVSKLTVDKSRWQQGNVFSCSVMHEALHNHYTQKSLSLSPGGGGGSGGGGSGGGGSGGGGGSSWMEEVIKLCGRELVRAQIAICGMSTWS
